Experimental data as given in the DeepSol protein solubility set.

test: soluble on expression in E. coli; label from the status in PepcDB or PDB records

Sequence	soluble on expression in E. coli
MGSDKIHHHHHHMFGLIGHLTSLEHAQAVAQELGYPEYADQGLDFWCSAPPQIVDSIIVTSVTGQQIEGRYVESCFLPEMLASRRIKAATRKILNAMAHAQKHGINITALGGFSSIIFENFKLEQFSQVRNIKLEFERFTTGNTHTAYIICKQVEEASKQLGINLSNATVAVCGATGDIGSAVTRWLDARTDVQELLLIARDQERLKELQGELGRGKIMGLTEALPQADVVVWVASMPRGVEIDPTTLKQPCLLIDGGYPKNLATKIQYPGVHVLNGGIVEHSLDIDWKIMKIVNMDVPARQLFACFAESMLLEFEKLYTNFSWGRNQITVDKMEQIGRVSVKHGFRPLLV	not soluble
GSVTVPEVIASEVISYAQEENLLRKYGTVIRTAGDVKYPILVKKAEANVNKKERTTDITETAIQFDEILLDPAEFDALATVTKKLLKMSGVPVEDIVVEELKKAYVRKEINYMFNGDDAGNENPGALAKKAVAFEKPVDLTAAGAGQKLYDALIEFKNTPVTEVMKKGRFIINRAALTAIEKMKTDDGFPLLRPFTQAEGGIGYQLVGYPVDWTDAADKKGEPDTPVLYFGDFSAFKIQEVIGALEIQKLVEKFSGKNQVGFQIYNLLDGQLVYSPFEPAVYRYEITKPVGG	not soluble
MATTKPYRVLLYYMYTTIENPEEFAAEHLEFCNSLELKGRILVAKEGINGTCSGTVEQTEKYMEAMNNDPRFDGIVFKIDEADGHAFKKMHVRPRPELVTLRLEDDINPHEITGKYLEPKDFYEAMKQEDTVIIDARNDYEFDLGHFKGAIKPDIESFRELPDWIRENKEVLEGKKILTYCTGGIRCEKFSGWLVREGYEDVSQLHGGIVTYGKDPEVQGELWDGQCYVFDERIAVPVNQKEHVIVGKDHFTGEPCERYVNCANPECNKKILCSEENEAKYLRACSHECRVSPRNRYVIQHELTEEQVAAALEQIEAGKLEHHHHHH	not soluble
MANFMSKEAPFWKVKKLEEMSLSEWESLCDGCGLCCLHKVEDDDTGDIYATSVACRLLDSETCRCRNYVHRKSIVPDCIFLNLATIKTVRWLPENCAYRLIYEGKDLYWWHPLVSGNYQTVHQTQFSARGQIEIYEDELSSEEDYLQYITGILCEGR	not soluble
MKSRYLLFFLPLIVAKYTSAATMQPFHSPEESVNSQFYLPPPPGNDDPAFRYDKEAYFKGYAIKGSPRWKQAAEDADISVENIARIFSPVVGAKISPKDTPETWNMLQNLLKVGGYYATASAKKYYMRTRPFVLFNHSTCRPEDENTLRKDGSYPSGHTAYSTLLALVLSQARPERAQELARRGWEFGQSRVICGAHWQSDVDAGRYVGAVEFARLQTIPAFQKSLAKVREELNDKNNLLSKEERPELNY	soluble
MGSDKIHHHHHHMQENRYNTCDRFLGGLEKDFIITEQIEDSPLTSEPSFLDYGIIAVCNRGSAIIHLLDNKHVWNKNELIFLFPRQLCSMRNVSEDFSAKFIIIPHVLHGDVLSSLRHFDPGFHFFVKDHFYYNIEDNNGIERFQSFCKLIENELERYRGNGLLRERIICYLGIFYMDVYDYYVKVRKKIPFRTSLRKEQLIYDFCSLVAENFKNHKNVGFYADKLNITTTYLSAIMNERCGISAKEFLSIYIVLEVKSLLRDSRLNIQEIAILTNFPSQSTLNRFFRQRTGMTLSQYRKHIFST	not soluble
MSLKRVSVIICMFLYFVLTDKAHAQRCLPGTKGLRITAGMTDGFHTADKRNELGYHFGMGMDRYVNGCHKWVFSGEYLQKYYPYKDIRVPVSQFTAEGGYYYNFLSDANKVFLCYAGGSVLAGYETVNWGTGMLFDGSRLCVGDAFVYGGAVSLEIETYLANQVVLLFHARERCLWGNDSGHFHFQFGVGLKIILNEGHHHHHH	not soluble
MGSDKIHHHHHHMTYIALGMAAIGRPHYINIKTIDSPKDLTKAELHAHATAVLDAAYAMGIRHIDTAPGYGIAEEILIDWLRRSGHEDMTVSTKWGYTYTANFEKNPLQHEVKEHSLHVLQQQWLYSRQLLPPLNMYQIHSATSDSGVLNNQGVLDKLFELKEQFGIEIGLTTSGLTQNATIQQALKITNQGKPLFTIFQVTYNVFEQSIADSVALLKNQGARIIIKEGLANGRIFTCADFPQYAPAYALLERLAGKYHVGVDAVALRFCIDALRPLYVLSGAATIVQLKENLLAETFTLQSEELEELKSIHVASEAYWNERKQLKWN	not soluble
MAKIKLPIVTINAKGGAQYVVEGVEAVNALTQLENYPERGIRIKVDGKMTVITEGCLCSAAVTGEVEVDVPEIVCEEVECEPISNILPNPKNPTDPGENSKPEEKAGEK	not soluble
MGSDKIHHHHHHMKNAMLVLCVFLGLSACADRDLMPIVPEAVEIGTPYTVFSTTTRAQEADGTYGFRRSEQLRMMEMTVTIPPNHSPGELSYRYKNPDPHKNFAIAEELPVASVSDLRARFLREQRENNWPLREVTIFVHGYNSTHPETAYRSAQMAHDVELPGSLVMYSWPSRGRAFGYAYDIDSMLFARDGLEETVRRVKQAGAERIILVAHSMGTALAMEMLRQADLRNPGWAARTLNGGVILISPDLDVDVFESQMMDLKQVPQPFGVMVSEKDHILNISGRLRGTSEGERLGNIKSAERLMKWPIEVIDLTAFNADAASGHFVAATSPSLLAVIRSASNVSRLFGPVDPTLFQQILPQSQTIVTDHGKLMLARQQRQEER	not soluble
GAMADRDRLRPPLDERSLRDQLIGAGSGWRQLDVVAQTGSTNADLLARAASGADIDGVVLIAEHQTAGRGRHGRGWAATARAQIILSVGVRVVDVPVQAWGWLSLAAGLAVLDSVAPLIAVPPAETGLKWPNDVLARGGKLAGILAEVAQPFVVLGVGLNVTQAPEEVDPDATSLLDLGVAAPDRNRIASRLLRELEARIIQWRNANPQLAADYRARSLTIGSRVRVELPGGQDVVGIARDIDDQGRLCLDVGGRTVVVSAGDVVHLR	soluble
MGSDKIHHHHHHMAWHKLGRVYCADGFADWAQHSFMTPVPVQMSADVIRLYGGMRDDAGISRIGWVDLDAHNPLRVIAVCDAPALDLGEPGMFDDNGVILGDVIRTSEAELRMYYVGFQLVEKAKFLAFTGVAISDASGTRFDRVFPTPVLDRAPEALFINALHSIAQTETGFRAWISCGQRWQDINGRIYPQYNCWTVPSEDGLHFDMRDAVKIMDVNEAEYRIGRPRANRLADGSFELRVTSDTFDKHYSSHLAHSKDGIVFQRSDEVELPRGAPGDWDAEMTCYPARIDTPTGRSYLFYNGNNMGETGVGVAEWQAEA	not soluble
AHHHHHHGSGEKRKTRQAEVNIGMVGHVDHGKTTLTKALTGVWTDTHSEELRRGITIKIGFADAEIRRCSNCGRYSTSPICPYCGHETEFIRRVSFIDSPGHEALMTTMLAGASLMDGAILVIAANEPCPRPQTREHLMALQIIGQKNIIIAQNKIELVDKEKALENYRQIKEFIKGTVAENAPIIPISALHGANIDVLVKAIEEFIPTPKRDSNKPPKMLVLRSFDVNKPGTPPEKLVGGVLGGSIVQGKLKVGDEIEIRPGVPYEEHGRIKYEPITTEIVSLQAGGQFVEEAYPGGLVGIGTKLDPYLTKGDLMAGNVVGKPGKLPPVWTDLRLEVHLLERVVGTEQELNVEPIKRKEVLLLNVGTARTMGLVTALGKDEIELKLQIPVCAEPGERVAISRQIGSRWRLIGYGIIKE	not soluble
MSSGFAVSARSLALMATLAFAAPALAQQYGGEVDPEIRIQQLEDRLRTLTGQNEELQHRNRRLEEQVRQLQSGAGAPGAQQPAPNQATTPPAAPQQPYSQPAQQPAYGQQQPGYGQPQAPMVQPQPAAPQGGGRRGDAFDPSRDPNAPGVPRALGGGQLPMEQSGGMPAGRAAGAPMDLSNGNGGYVQGGYPQGGAPSAAKQPPAATAGGALTTQPPSQTPRDEFDLGIGYMQRRDYALAEETMRNFAQKYPDNPLTADAQYWLGESFFQRQMYRDAAEAFLAVTSKHEKSGKAPDALLRLGQSLSALKEKEAACAALGEIGRKYPQASSSVKKAVDREQKKLKC	not soluble
MSLDIRGMTVEEAEPVVKKFIDDLMMNGISKGYIIHGKGTGKLASGVWEILRKDKRVVSFRFGTPSEGGTGVTVVEVKEGHHHHHH	not soluble
MAFKDTFNKMISYFDTDEVNEVEEDVAASTDNVIPRSQQSVRASSHPKQEPRNNHVQQDHQARSQEQTRSQMHPKHGTSERYYQQSQPKEGHEMVDRRKRMSTSGIANRREQYQQSTCSDQTTIALKYPRKYEDAQEIVDLLIVNECVLIDFQFMLDAQARRCLDFIDGASKVLYGSLQKVGSSMYLLAPSNVSVNIEEMTIPHTTQDIGFDFDMKRRLEHHHHHH	not soluble
MAHHHHHHMDRLAGSFLSNGDVANASSLYNSLEKLNPTRYSRMARICRVLLNPQGVPLPHRHLDICEALLDPLVPPEVLLRDSAENVQKSFQRLAVCAHPDKNPSPSANEAFLRLTMMKDKALELLRNGVGRKCDGATEAPPGKAADSNGGKGKPKMQGSGPAVPTVAHRRRPLRPGVPL	soluble
MSLSPEHKRTALVTGANSGLGKAIVTALAADGLRVGLVARDRGRGEAALADVRAATGNQDLHLFVADLADQESIRALAQDVRARFDRLHLLINNAGTAFPERRLSPQGIERAFAINHLGPFLLTNLLLDLIKASAPARIVNVGTRIDAAIDFDDLNWDKRPYGMMKGYAQSKLGNLHFTFELARRLEGSGVTVNCVFPGVFKSNLGGTDGAQGLFWKLLAKLGGWAIPKPESAAQRVLYLANAPELESVSGQYYANRKTIPAPAQALDAEANRRLWEISERMTGLTQSQTVGDQAATEGHHHHHH	soluble
MGSDKIHHHHHHMSAPLLSVRDLSVAFHQGESQSLAVDHVSFDIAPGEILALVGESGSGKSVSAASILKLLPYPAASHPSGQILFDGRDLLTLSEPALRAVRGNDITMIFQEPMTSLNPLHSIEQQIGEILELHQSLTGDAARKRTLELLLQVGIREPEKRLSAFPHELSGGQRQRVMIAMALANRPKLLVADEPTTALDVTVQAQILELLAGLKREHGMSMLFITHDLGIVRKFADRVCVMTGGKIVESGPVEAIFANPQHAYTRKLLASEPRGVPPETDLAKPVVMEGQEIRVWFPIKAGFLRRVVDNVKAVDGVDLTLRAGQTLGVVGESGSGKTTLGLALARLISSRGRIGFLGKNIDGYSFKQMRPLRDRLQVVFQDPFGALSPRMSVGDIIAEGLRVHERGLTAAERDRRVCWALEEVGLDIATRWRYPHEFSGGQRQRIAIARAMVLKPRFVMLDEPTSALDMTVQAQVVDLLRDLQSRHDLAYLFISHDLKVVKALANDIIVMRSGKVVEQGPAQEVFTAPKQDYTKALLAAAFDLKAMNIGGVSQ	not soluble
MGSDKIHHHHHHMPNPTRAFLLGPLLKGVSRSFYLTLRVLPAGMRDPIGLAYLLARAADTIADTSLIAPQRRLTLLLSLREQVNGATDDAALFQRMAAEVAGQQVQSDEKVLLESLGPALDVLSQLNEFDRKAVREIVSTLTEGMEFDLRTFPDERSGQIAALREYDELDRYTYLVAGCVGEFWTTMTYAHMPGTLKERADVMARRGVRFGKALQMTNVLRDCGKDLRIGRCYLPQTMLDRYGLSPQDLLRPDNSVRARPLMIELLRKTVDHFREALDYTLAIPASAVRLRLASLWPILIGLETLILLADNDAWLDPQKVSKVRRNKVYQIIASSLLLVPSNGLVRHAVERRIRQIEARF	not soluble
MARNAEKAMTALARWRRMKEEEERGPIARRPHDVKDCRNLSDAERFRREIVRDASKKITAIQNPGLGEFKLRDLNDEVNRLIKLKHAWEQRIRELGGTDYRKYAQKELDAIGRETGNSRGYKYFGAAKDLPGVRELFEKSTEGEEQRRHRADLLRNIDAHYFGYLDDEDGRLIPLEKLIEEKNIERINKEFAEKQAQKQQTASDAAPENIYKVEEDDDDDLETQESTVIGEDGRPMTIRHVLLPTQQDIEEMLLEQKKQELMAKYLD	not soluble
